Measured values taken from IntAct's records for PubMed 21070972.

B1: tRNA endonuclease ANKZF1 (Mus musculus), Q80UU1 (parent)
chain: MAKPAGDAAVGSRSGELFLPSVSSSATSPAPSAAPAPASVSLLSLNGEAPLIRGLSLVSQAPGEALAWAPRTSCPGENTSSGGKVSPYSLEISEKLFCSACDQIFQNHQEQREHYKLDWHRFNLKQRLKNKPLLSASDFEQQSSTGDLSSISGSDDTDSSSEEDLLPLDEGRAESEKPNRPPGFYPHRVLFKNAQGQFLYAYRCVLGPHQIPPEKAELLLQNLQNGGPRYYVVLMAAAGHFAGAIFQGREVVAHKTFHRYTVRAKRGTAQGLQDAHGRASRSAGANLRRYNEAMLYKDVRNLLAGPIWSKALGEAETVLFRAPRSGRSLFFGGQGAPLQRDDPRLWDIPLTTRRPTFGELQRVLHKLTTLQVYDEDPREMVRFHSPETHWKPVREERKKDTEKEKTKVPSDANKPLGQDEEPLKQGSESQEEDGSEVELELVELTLGTLDLREFEVLPKRRRRRKKKERSQEQQCGAHGPLPQQPQDEPFSQPTQEVETPLDTLVYEAKAPGQPELWDTLLAACRAGEVEVLKLQLATGLVDPGVKSLLNAPLGSGGFTLLHAAAAAGRGLVVRLLLEAGADPTVQDSRARPPYTVAADKSTRNEFRRFMEKNLDAYDYNKARVPGPLTQEMEARQATRKKEQKAARRQREQQQRKQREQEEQEQEEQRRFAALSDREKRALAAERRLAAQLGAPSPPVPDSAVASAGRCWSCGVSLQGLIPFHYLDFSFCSTRCLRDHRSQAGRPSS
B2: Cell division control protein 48 (Saccharomyces cerevisiae), P25694 (parent)
chain: MGEEHKPLLDASGVDPREEDKTATAILRRKKKDNMLLVDDAINDDNSVIAINSNTMDKLELFRGDTVLVKGKKRKDTVLIVLIDDELEDGACRINRVVRNNLRIRLGDLVTIHPCPDIKYATRISVLPIADTIEGITGNLFDVFLKPYFVEAYRPVRKGDHFVVRGGMRQVEFKVVDVEPEEYAVVAQDTIIHWEGEPINREDEENNMNEVGYDDIGGCRKQMAQIREMVELPLRHPQLFKAIGIKPPRGVLMYGPPGTGKTLMARAVANETGAFFFLINGPEVMSKMAGESESNLRKAFEEAEKNAPAIIFIDEIDSIAPKRDKTNGEVERRVVSQLLTLMDGMKARSNVVVIAATNRPNSIDPALRRFGRFDREVDIGIPDATGRLEVLRIHTKNMKLADDVDLEALAAETHGYVGADIASLCSEAAMQQIREKMDLIDLDEDEIDAEVLDSLGVTMDNFRFALGNSNPSALRETVVESVNVTWDDVGGLDEIKEELKETVEYPVLHPDQYTKFGLSPSKGVLFYGPPGTGKTLLAKAVATEVSANFISVKGPELLSMWYGESESNIRDIFDKARAAAPTVVFLDELDSIAKARGGSLGDAGGASDRVVNQLLTEMDGMNAKKNVFVIGATNRPDQIDPAILRPGRLDQLIYVPLPDENARLSILNAQLRKTPLEPGLELTAIAKATQGFSGADLLYIVQRAAKYAIKDSIEAHRQHEAEKEVKVEGEDVEMTDEGAKAEQEPEVDPVPYITKEHFAEAMKTAKRSVSDAELRRYEAYSQQMKASRGQFSNFNFNDAPLGTTATDNANSNNSAPSGAGAAFGSNAEEDDDLYS
partner: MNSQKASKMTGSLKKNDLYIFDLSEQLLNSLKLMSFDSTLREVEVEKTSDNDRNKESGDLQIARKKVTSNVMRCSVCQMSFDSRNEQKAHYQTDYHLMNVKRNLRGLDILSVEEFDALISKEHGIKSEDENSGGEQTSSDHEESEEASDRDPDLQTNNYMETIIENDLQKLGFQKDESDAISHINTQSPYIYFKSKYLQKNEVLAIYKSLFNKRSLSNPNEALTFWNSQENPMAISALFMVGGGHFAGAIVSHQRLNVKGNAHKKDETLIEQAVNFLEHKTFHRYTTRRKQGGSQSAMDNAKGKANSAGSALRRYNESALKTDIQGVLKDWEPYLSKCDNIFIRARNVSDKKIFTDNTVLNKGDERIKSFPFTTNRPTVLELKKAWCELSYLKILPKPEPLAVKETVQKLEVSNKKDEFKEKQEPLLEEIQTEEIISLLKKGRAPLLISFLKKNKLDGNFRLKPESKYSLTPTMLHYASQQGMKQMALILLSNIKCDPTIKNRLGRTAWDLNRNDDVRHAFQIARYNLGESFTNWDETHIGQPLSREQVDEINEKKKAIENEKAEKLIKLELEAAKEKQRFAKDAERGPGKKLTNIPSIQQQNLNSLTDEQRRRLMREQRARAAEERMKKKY

Variants of: B1
Conditions: with tera_mouse Vcp

| effect of a mutation on the interaction | Variant |
| --- | --- |
| decreasing interaction strength | E685A;R686A;R687A |

Variants of: B2
Conditions: with vms1_yeast VMS1, Q04311

| effect of a mutation on the interaction | Variant |
| --- | --- |
| decreasing interaction strength | S565E |
